According to US20190144550A1:

What was measured:
[1] = target: wild-type EGFR expressed on cells (human), P00533; experiment: flow cytometry, A431 cells; conditions: remark: other sources report otherwise
[2] = target: wild-type EGFR expressed on cells (human), P00533; experiment: flow cytometry, F98-EGFRwt cells; conditions: remark: other sources report otherwise

% positive [1]: 1.1%
MFI [1]: 294
MFI [2]: 371
B1: 34E7 (antibody, V domains shown)
VH: EVNLVESGGGLVKPGGSLRLSCEASGFTFSYAWMSWVRQAPGKGLEWVGRIKSINDGGATDYASPVRNRFTISRDDSRNMLYLEMHSLKTEDTAVYYCTTIPGNDAFDMWGQGTLVTVSS
VL: DIVLTQSPLSLSVTPGEPASISCRSTQSLLYSNGKNYLDWFLHKPGQSPQLLIFLGSIRASGVPDRFSGSGSGIDFILKISRVEAEDVGVYYCMQAQQTPITFGQGTRLEIK
